The record followed here is article PMC4601027, “Structural Analysis of the Pin1-CPEB1 interaction and its potential role in CPEB1 degradation” (Scientific Reports, 2015).

Several values for one entry are separate records, joined by “and”; a condition that tells them apart may be missing. Equal values may be shown once. Non-standard residues stand in square brackets, D forms with d. No end group written: not given here. pS = N[C@@H](COP(=O)(O)O)C(=O)O

Assay [1] addresses T1, full-length Pin1 (UniProt Q13526 1-163).
T1 construct: Pin1 (peptidyl-prolyl cis/trans isomerase), full length; WW domain, linker and PPIase (catalytic) domain; Uniprot Q13526 is printed for the WW construct; 15N-labelled for NMR; The vector has a TEV cleavage site; Monomer by IM-MS; also called Pin1 full-length; full-length Pin1 protein; source: recombinant; clone from Addgene (Dustin Maly's Lab) in pMCSG7
The experiment in a line: native MS; travelling wave ion mobility mass spectrometry (IM-MS), nano-electrospray; unbound full-length Pin1 or Pin1 with CPEB1 pS210, 30-50 μM, 20-50 mM NH4OAc pH 7.2. To be noted: both partners purified.

The target of assay [2] is T1, full-length Pin1. In words: ITC; nano ITC, 12 °C or 25 °C; 20 mM Tris-HCl pH 7.0, 130 mM NaCl; 10- to 15-fold concentrated peptide injected (16 x 3 μL) into 190 μL of protein at 150-200 μM; single-site fit, except Pin1 full-length with pS210. The following applies: both partners purified. In general terms: In ITC the heat of successive injections is recorded.

T1 sequence (Q13526 whole entry, the tested form may be a part): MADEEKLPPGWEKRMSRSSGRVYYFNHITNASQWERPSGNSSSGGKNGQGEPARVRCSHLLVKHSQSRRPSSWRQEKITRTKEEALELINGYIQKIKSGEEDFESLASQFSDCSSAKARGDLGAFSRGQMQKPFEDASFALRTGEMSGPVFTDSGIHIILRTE

For RI[pS]PPLPF-NH2 [CPEB1 pS210 peptide], the stoichiometry N (commonly the number of molecules, sites or subunits per partner or assembly) is 1 ligands per Pin1 and 2 ligands per Pin1 with full-length Pin1 [1]; 0.85 with full-length Pin1 [2].
